How the values were obtained:
[1] = target: Cleaved human epiregulin (human) (UniProt O14944); assay: ELISA: biotinylated ligand (20 nM) captured on neutravidin plate, antibody titrated 1:3, anti-human kappa-AP detection, OD405 [panel B]
[2] = target: TGFα (human) (UniProt P01135); assay: as above
[3] = target: Cleaved cynomolgus monkey epiregulin (cynomolgus monkey); assay: cell-based or functional assay
[4] = target: Cleaved human epiregulin (human) (UniProt O14944); assay: cell-based or functional assay
[5] = target: Cleaved rabbit epiregulin (rabbit); assay: cell-based or functional assay
[6] = target: Cleaved rat epiregulin (rat) (UniProt Q9Z0L5); assay: cell-based or functional assay

EC50 (read off the curve) [1]: 0.03 µg/mL
EC50 (read off the curve) [2]: 0.02 µg/mL
IC50, neutralization of epiregulin induced luciferase reporter activity in C166-AP1-Luciferase cells [3]: 8.6 nM
IC50, neutralization of epiregulin induced luciferase reporter activity in C166-AP1-Luciferase cells [4]: 25.9 nM
IC50, neutralization of human epiregulin induced phospho-ERK induction in TGW cells [4]: 14.6 nM
IC50, neutralization of epiregulin induced luciferase reporter activity in C166-AP1-Luciferase cells [5]: 11 nM
IC50, neutralization of epiregulin induced luciferase reporter activity in C166-AP1-Luciferase cells [6]: 720 nM
Substance: LY3016859 (antibody)

Source: patent US20250101091A1
